This is an account of results in patent US20060287501A1 (Pieris, published 2006).

T1: recombinant Nogo-A fragment NI-Fr2 (rat, UniProt Q9JK11 233-941, labelled with digoxigenin (molar ratio 5:1) in the colony screening assay)
T1 construct: Truncated rat Nogo-A with C-terminal Strep-tag, made in the E. coli periplasm; also called MI-Fr2; wild-type NI-Fr2
T1 sequence: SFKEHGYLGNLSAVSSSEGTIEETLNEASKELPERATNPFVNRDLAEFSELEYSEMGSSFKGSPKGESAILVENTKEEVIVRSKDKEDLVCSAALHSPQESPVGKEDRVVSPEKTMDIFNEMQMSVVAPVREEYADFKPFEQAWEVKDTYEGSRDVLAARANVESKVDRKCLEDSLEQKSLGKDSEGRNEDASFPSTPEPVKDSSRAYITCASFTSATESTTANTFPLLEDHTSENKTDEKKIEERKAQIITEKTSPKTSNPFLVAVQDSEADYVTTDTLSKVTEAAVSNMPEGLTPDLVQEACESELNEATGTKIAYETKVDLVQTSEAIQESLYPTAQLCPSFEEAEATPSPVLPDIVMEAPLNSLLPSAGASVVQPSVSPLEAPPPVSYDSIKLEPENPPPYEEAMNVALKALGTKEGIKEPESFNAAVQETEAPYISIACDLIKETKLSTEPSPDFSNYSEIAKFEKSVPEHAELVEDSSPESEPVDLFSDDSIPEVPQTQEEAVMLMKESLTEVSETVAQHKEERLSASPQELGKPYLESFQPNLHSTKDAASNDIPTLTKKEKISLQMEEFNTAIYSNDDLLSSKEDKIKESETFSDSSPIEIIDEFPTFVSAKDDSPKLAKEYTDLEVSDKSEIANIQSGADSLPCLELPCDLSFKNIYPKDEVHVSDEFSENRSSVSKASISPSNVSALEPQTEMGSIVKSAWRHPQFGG

B1: I.2.6 Fab fragment with Cys L96 replaced by Ala (Fab, V domains shown)
VH: EVKLHESGPGLVRPGTSVKISCKASGYTFTNYWLGWVKQRPGHGLEWIGDIYPGGGYTNYNEKFKGKATLTADTSSSTAYMQLSSLTSEDSAVYFCARFYYGSSYWYFDVWGQGTTVTVSS
VL: DIELTQSPAIMAASVGETVTITCGASENIYGALNWYQRKQGKSPQLLIYGATNLADGMSSRFSGSGSGRQYSLKISSLHPDDVATYYCQNVLRVPATFGAGTKLEIK
notes: Chimeric Fab, human IgG1/kappa constant domains
B2: I.2.6 Fab fragment with Cys L96 replaced by Leu (Fab, V domains shown)
VH: EVKLHESGPGLVRPGTSVKISCKASGYTFTNYWLGWVKQRPGHGLEWIGDIYPGGGYTNYNEKFKGKATLTADTSSSTAYMQLSSLTSEDSAVYFCARFYYGSSYWYFDVWGQGTTVTVSS
VL: DIELTQSPAIMAASVGETVTITCGASENIYGALNWYQRKQGKSPQLLIYGATNLADGMSSRFSGSGSGRQYSLKISSLHPDDVATYYCQNVLRVPLTFGAGTKLEIK
notes: as for B1
B3: I.2.6 Fab fragment with Cys L96 replaced by Met (Fab, V domains shown)
VH: EVKLHESGPGLVRPGTSVKISCKASGYTFTNYWLGWVKQRPGHGLEWIGDIYPGGGYTNYNEKFKGKATLTADTSSSTAYMQLSSLTSEDSAVYFCARFYYGSSYWYFDVWGQGTTVTVSS
VL: DIELTQSPAIMAASVGETVTITCGASENIYGALNWYQRKQGKSPQLLIYGATNLADGMSSRFSGSGSGRQYSLKISSLHPDDVATYYCQNVLRVPMTFGAGTKLEIK
notes: as for B1
B4: I.2.6 Fab fragment with Cys L96 replaced by Ile (Fab, V domains shown)
VH: EVKLHESGPGLVRPGTSVKISCKASGYTFTNYWLGWVKQRPGHGLEWIGDIYPGGGYTNYNEKFKGKATLTADTSSSTAYMQLSSLTSEDSAVYFCARFYYGSSYWYFDVWGQGTTVTVSS
VL: DIELTQSPAIMAASVGETVTITCGASENIYGALNWYQRKQGKSPQLLIYGATNLADGMSSRFSGSGSGRQYSLKISSLHPDDVATYYCQNVLRVPITFGAGTKLEIK
notes: as for B1
B5: I.1.6 Fab fragment (IN-1 mutant) (Fab, V domains shown)
VH: EVKLHESGPGLVRPGTSVKISCKASGYTFTNYWLGWVKQRPGHGLEWIGDIYPGGGYTNYNEKFKGKATLTADTSSSTAYMQLSSLTSEDSAVYFCARFYYGSSYWYFDVWGQGTTVTVSS
VL: DIELTQSPAIMAASVGETVTITCGASENIYGALNWYQRKQGKSPQLLIYGATNLADGMSSRFSGSGSGRQYSLKISSLHPDDVATYYCQNVLNLPCTFGAGTKLEIK
notes: as for B1
B6: I.4.4 Fab fragment (IN-1 mutant) (Fab, V domains shown)
VH: EVKLHESGPGLVRPGTSVKISCKASGYTFTNYWLGWVKQRPGHGLEWIGDIYPGGGYTNYNEKFKGKATLTADTSSSTAYMQLSSLTSEDSAVYFCARFYYGSSYWYFDVWGQGTTVTVSS
VL: DIELTQSPAIMAASVGETVTITCGASENIYGALNWYQRKQGKSPQLLIYGATNLADGMSSRFSGSGSGRQYSLKISSLHPDDVATYYCQNVLDRPLTFGAGTKLEIK
notes: as for B1
B7: I.2.4 Fab fragment (IN-1 mutant) (Fab, V domains shown)
VH: EVKLHESGPGLVRPGTSVKISCKASGYTFTNYWLGWVKQRPGHGLEWIGDIYPGGGYTNYNEKFKGKATLTADTSSSTAYMQLSSLTSEDSAVYFCARFYYGSSYWYFDVWGQGTTVTVSS
VL: DIELTQSPAIMAASVGETVTITCGASENIYGALNWYQRKQGKSPQLLIYGATNLADGMSSRFSGSGSGRQYSLKISSLHPDDVATYYCQNVLGTPFTFGAGTKLEIK
notes: as for B1
B8: I.2.5 Fab fragment (IN-1 mutant) (Fab, V domains shown)
VH: EVKLHESGPGLVRPGTSVKISCKASGYTFTNYWLGWVKQRPGHGLEWIGDIYPGGGYTNYNEKFKGKATLTADTSSSTAYMQLSSLTSEDSAVYFCARFYYGSSYWYFDVWGQGTTVTVSS
VL: DIELTQSPAIMAASVGETVTITCGASENIYGALNWYQRKQGKSPQLLIYGATNLADGMSSRFSGSGSGRQYSLKISSLHPDDVATYYCQNVLPCPVTFGAGTKLEIK
notes: as for B1
B9: I.1.11 Fab fragment (IN-1 mutant) (Fab, V domains shown)
VH: EVKLHESGPGLVRPGTSVKISCKASGYTFTNYWLGWVKQRPGHGLEWIGDIYPGGGYTNYNEKFKGKATLTADTSSSTAYMQLSSLTSEDSAVYFCARFYYGSSYWYFDVWGQGTTVTVSS
VL: DIELTQSPAIMAASVGETVTITCGASENIYGALNWYQRKQGKSPQLLIYGATNLADGMSSRFSGSGSGRQYSLKISSLHPDDVATYYCQNVLYTPCTFGAGTKLEIK
notes: as for B1

For the first assay, the target named is T1, recombinant Nogo-A fragment NI-Fr2. Kind of assay: ELISA; NI-Fr2 coated. As for the experimental part:
ELISA was carried out in a 96 well microtitre plate (Becton Dickinson, Heidelberg, Germany) at ambient temperature with incubation steps of 1 h unless otherwise stated. Three washing steps with PBS/T were used after each incubation, and residual liquid was removed thoroughly. The wells were coated for 4 h with 50 μl of a solution of MI-Fr2 at concentrations between 180 and 200 μg/ml in PBS buffer and then blocked with 200 μl 3% (w/v) BSA, 0.5% (v/v) Tween 20 in PBS. After washing, 50 μl of the purified recombinant Fab fragment was applied at a dilution series in PBS/T. The wells were then incubated with 50 μl anti-human Cκ antibody conjugated with alkaline phosphatase (Sigma), diluted 1:1000 in PBS/T. Signals were finally developed in the presence of p-nitrophenyl phosphate (Voss and Skerra, (1997) Protein Eng., 10, 975-982). Enzymatic activity was measured at 25° C. as the change in absorbance at 405 nm per min with a SpectraMAX 250 instrument (Molecular Devices, Sunnyvale, Calif.). The data were corrected for background values determined in wells that were merely coated with BSA and fitted by non-linear least squares regression as described by Voss and Skerra, supra
Unfortunately, the I.2.6 mutant of the IN-1 Fab fragment was produced as a soluble protein in E. coli at a much lower level, with a relative yield of 5% after purification (0.04 mg L⁻¹ OD⁻¹ vs. 0.8 mg L⁻¹ OD⁻¹ for the wild-type IN-1 Fab fragment). […] Following earlier substitution experiments concerning position L96 (cf. above) attempts were made to replace the Cys residue in the I.2.6 mutant by small apolar side chains such as those of Ala, Val, Met, Leu, and Ile. The substitutions were introduced by site-directed mutagenesis and all corresponding recombinant Fab fragments were produced and purified as before, resulting in yields that were similar again to the wild type IN-1 Fab fragment.
For the molecule B1, the binding result is “no binding”.

Turning to B2, the binding result is on record as “no binding”. Consider B3, for which the binding result is given as “no binding”.

Take B4: the binding result was “no binding”.

For the next assay the target is unchanged. Kind of assay: filter-sandwich colony screening assay; Fab-ABD (pASK106) captured on HSA membrane, digoxigenin-labelled NI-Fr2. Here is the method:
The mutagenized gene fragment was recloned on the expression vector pASK106-IN1 (encoding a Fab fragment fused with an albumin-binding domain to the C-terminus of its light chain; König and Skerra, supra). E. coli JM83 was transformed with the ligation mixture and transformed cells harboring the pASK106 vector were plated on a hydrophilic membrane (GVWP, 0.22 μm; Millipore, Bedford, Mass.), placed on a petri dish with LB/Amp agar, such that approximately 500 colonies were obtained, and incubated at 37° C. for 8 to 9 h. In the meantime a hydrophobic membrane (Immobilon-P, 0.45 μm; Millipore) was coated with 10 mg/ml human serum albumin (HSA; Sigma, Deisenhofen, Germany) in PBS for four hours and blocked with 3% (w/v) BSA (Roth, Karlsruhe, Germany), 0.5% (v/v) Tween 20 in PBS. The membrane was washed twice with PBS, soaked in LB/Amp containing […], and placed on an LB/Amp agar plate supplemented with […]. The first membrane, carrying tiny colonies of the transformed cells, was then placed onto the second (hydrophobic) membrane. The filter sandwich was incubated for 16 h at 22° C. During this period the mutated IN-1 Fab fragments became secreted—and partially released from the colonies by leakage from the bacterial periplasm—and finally immobilized on the lower membrane via complex formation between HSA and ABD.
The first membrane with the still viable colonies was transferred to a fresh LB/Amp agar plate and stored at 4° C. The second membrane was washed three times in PBS containing 0.1% (v/v) Tween 20 (PBS/T) and the immobilized Fab fragments, each in a spot 30 corresponding to the position of the original colony, were probed for antigen binding. To this end recombinant Nogo-A fragment NI-FR2 was labeled at a molar ratio of 5:1 with digoxigenin-3-O-methylcarbonyl-e-aminocaproic acid N-hydroxy-succinimide ester (Roche Diagnostics, Mannheim, Germany) and applied to the membrane for one hour at a concentration of 30 or 50 μg/ml in PBS/T. After washing three times with PBS/T the membrane was incubated for one hour with 0.75 u/ml anti-digoxigenin Fab fragment conjugated with alkaline phosphatase (Roche Diagnostics) in 10 ml PBS/T. The membrane was finally washed twice with PBS/T and twice with PBS and the signals were developed using standard chromogenic substrates as described (Schlehuber et al., supra).
Consider B5, for which the binding result is “binds”.

For the molecule B6, the binding result is given as “binds”. Still for that read-out and setting: as for B7, the entry is “binds”; as for B8, “binds”. In the case of B9, the binding result was “binds”.
